Reference: PMC12775124, “CUL4A-DDB1-DCAF10 is an N-recognin for N-terminally acetylated Src kinases” (Nature Communications, 2026)

B1: Lyn^G2A-GFP: Nt-mutant (G2A) Lyn-GFP (protein, UniProt P07948 2-512, looked up, variant G2A)
Tyrosine-protein kinase Lyn: ACIKSKGKDSLSDDGVDLKTQPVRNTERTIYVRDPTSNKQQRPVPESQLLPGQRFQTKDPEEQGDIVVALYPYDGIHPDDLSFKKGEKMKVLEEHGEWWKAKSLLTKKEGFIPSNYVAKLNTLETEEWFFKDITRKDAERQLLAPGNSAGAFLIRESETLKGSFSLSVRDFDPVHGDVIKHYKIRSLDNGGYYISPRITFPCISDMIKHYQKQADGLCRRLEKACISPKPQKPWDKDAWEIPRESIKLVKRLGAGQFGEVWMGYYNNSTKVAVKTLKPGTMSVQAFLEEANLMKTLQHDKLVRLYAVVTREEPIYIITEYMAKGSLLDFLKSDEGGKVLLPKLIDFSAQIAEGMAYIERKNYIHRDLRAANVLVSESLMCKIADFGLARVIEDNEYTAREGAKFPIKWTAPEAINFGCFTIKSDVWSFGILLYEIVTYGKIPYPGRTNADVMTALSQGYRMPRVENCPDELYDIMKMCWKEKAEERPTFDYLQSVLDDFYTATEGQYQQQP
modifications: GFP fusion
B2: Lyn^G2P-GFP: Nt-mutant (G2P) Lyn-GFP (protein, UniProt P07948 2-512, looked up, variant G2P)
Tyrosine-protein kinase Lyn: PCIKSKGKDSLSDDGVDLKTQPVRNTERTIYVRDPTSNKQQRPVPESQLLPGQRFQTKDPEEQGDIVVALYPYDGIHPDDLSFKKGEKMKVLEEHGEWWKAKSLLTKKEGFIPSNYVAKLNTLETEEWFFKDITRKDAERQLLAPGNSAGAFLIRESETLKGSFSLSVRDFDPVHGDVIKHYKIRSLDNGGYYISPRITFPCISDMIKHYQKQADGLCRRLEKACISPKPQKPWDKDAWEIPRESIKLVKRLGAGQFGEVWMGYYNNSTKVAVKTLKPGTMSVQAFLEEANLMKTLQHDKLVRLYAVVTREEPIYIITEYMAKGSLLDFLKSDEGGKVLLPKLIDFSAQIAEGMAYIERKNYIHRDLRAANVLVSESLMCKIADFGLARVIEDNEYTAREGAKFPIKWTAPEAINFGCFTIKSDVWSFGILLYEIVTYGKIPYPGRTNADVMTALSQGYRMPRVENCPDELYDIMKMCWKEKAEERPTFDYLQSVLDDFYTATEGQYQQQP
modifications: C-terminal GFP fusion

Test system: CUL4A-DDB1-DCAF10
Experiment: In vitro ubiquitination of Lyn-GFP variants by CUL4A-DDB1-DCAF10
Format: biochemical, human
Conditions: relative to Lyn^WT-GFP, NMT1/2 siRNA 72 h, mean ± s.d., n = 3
Source text: Lyn^WT-GFP was ubiquitinated by the WT E3 complex in both conditions; however, unlike in vitro ubiquitination with endogenous Lyn (Fig. 5c, d), ubiquitination increased ~6-fold under NMT1/2 siRNA conditions. This is consistent with DCAF10 being limiting and overexpressed Lyn-GFP, accumulating an acetylated fraction available for DCAF10 in vitro. Then, we performed IPs for all Nt variants under NMT1/2 siRNA conditions (Fig. 6d, h–i). […] In vitro ubiquitination assays using untreated cell lysates led to similar results (Supplementary Fig. 7h, i).
Reactions contained E1, UBCH5B (E2), ubiquitin, Mg-ATP in ligation buffer and were incubated with bead-bound substrates, followed by washing and immunoblot detection of ubiquitinated species (anti-ubiquitin), with loading controls (anti-Lyn, -Fyn, -Src or -GFP) (n = 3 independent enzymatic assays). Complete reagent lists, complex preparation, substrate IP conditions, wash buffers, and gel/blot parameters are provided in the Supplementary Methods and Tables.
357 (v/v) glycerol, 2 mM TCEP, supplemented with Protease Inhibitor Cocktail), and lysed
358 by sonication. Lysates were cleared by centrifugation at 28,000 rpm for 45 min at 4 °C […]
382 EDTA, and loaded on a gradient gel (4–15%). Ubiquitination of substrates was assessed
383 by WB using an anti-ubiquitin antibody. Equal substrate loading was evaluated by anti- […]

Molecule	Reduction of ubiquitination by the WT complex
B1	~ 82 ± 13%
B2	~ 84 ± 10%
